Test results taken from patent publication US20240317834A1, “COMPOSITIONS AND METHODS FOR NEUROLOGICAL DISEASES” (CODA BIOTHERAPEUTICS, INC., priority 2020, published 2024).
Numbering of substitutions follows the chain as printed. Names may count otherwise.

Test system: Lenti-X 293T cells
Test: YFP fluorescence quenching anion reporter plate reader assay of engineered receptors stimulated with acetylcholine or a non-native ligand
Assay type: cell-based
Conditions: for percent quench of YFP fluorescence, 30 nM TC-6683: TC-6683 30 nM; for percent quench of YFP fluorescence, 300 nM TC-6683: TC-6683 300 nM; for percent quench of YFP fluorescence, 3 uM TC-6683: TC-6683 3 uM; for percent quench of YFP fluorescence, 30 uM TC-6683: TC-6683 30 uM; for percent quench of YFP fluorescence, 100 uM TC-6683: TC-6683 100 uM; for percent quench of YFP fluorescence, 10 uM ach: acetylcholine 10 uM; for percent quench of YFP fluorescence, 100 uM ach: acetylcholine 100 uM; for percent quench of YFP fluorescence, 1 mM ach: acetylcholine 1 mM; for percent quench of YFP fluorescence, 3 mM ach: acetylcholine 3 mM; for percent quench of YFP fluorescence, 300 uM ach: acetylcholine 300 uM; for percent quench of YFP fluorescence, 500 uM ach: acetylcholine 500 uM; for percent quench of YFP fluorescence, 10 mM ach: acetylcholine 10 mM
Procedure, shortened: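 Lenti-X 293T cells carrying a YFP anion reporter were transiently transfected with channel DNA and assayed the next day in HEPES-buffered ECS at pH 7.2. Ligand (acetylcholine or non-native ligand) was added in NaI-substituted ECS. Percent quench was the mean of the last 10 s relative to the 15 s pre-addition baseline.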

B1: CODA965: engineered chimeric LGIC receptor, Y140C in SEQ ID NO: 33 (protein)
chain: MRCSPGGVWLALAASLLHVSLQGEFQRKLYKELVKNYNPLERPVANDSQPLTVYFSLSLLQIMDVDEKNQVLTTNIWLQMSWTDHYLQWNVSEYPGVKTVRFPDGQIWKPDILLYNSADERFDATFHTNVLVNSSGHCQCLPPGIFKSSCPMDLKNFPMDVQTCKLKFGSWSYGGWSLDLQMQEADISGYIPNGEWDLVGIPGKRSERFYECCKEPYPDVTFTVTMRRRMGYYLIQMYIPSLLIVILSWISFWINMDAAPARVGLGITTVLTMTTQSSGSRASLPKVSYVKAIDIWMAVCLLFVFSALLEYAAVNFVSRQHKELLRFRRKRRHHKSPMLNLFQEDEAGEGRFNFSAYGMGPACLQAKDGISVKGANNSNTTNPPPAPSKSPEEMRKLFIQRAKKIDKISRIGFPMAFLIFNMFYWIIYKIVRREDVHNQ
modifications: synthetic sequence of chimeric LGIC
YFP fluorescence quenching using CNL001 (1 nM CNL001, first column): −12.765% | YFP fluorescence quenching using CNL001 (1 nM CNL001, second column): −12.608% | YFP fluorescence quenching using TC-5619/Bradanicline (3 nM brd): −18.49% | YFP fluorescence quenching using Varenicline (3 nM var, first column): −17.716 | YFP fluorescence quenching using Varenicline (3 nM var, second column): −23.019 | YFP fluorescence quenching using CNL001 (10 nM CNL001, first column): 68.134% | YFP fluorescence quenching using CNL001 (10 nM CNL001, second column): 71.394% | YFP fluorescence quenching using TC-5619/Bradanicline (30 nM brd): 22.66% | YFP fluorescence quenching using Facinicline (30 nM fac): −12.29 | YFP fluorescence quenching using Varenicline (30 nM var, first column): −14.993 | YFP fluorescence quenching using Varenicline (30 nM var, second column): −12.182 | YFP fluorescence quenching using CNL001 (50 nM CNL001, first column): 80.298% | YFP fluorescence quenching using CNL001 (50 nM CNL001, second column): 82.159% | YFP fluorescence quenching using ABT-126 (50 nM abt): −10.75% | YFP fluorescence quenching using CNL001 (100 nM CNL001, first column): 82.404% | YFP fluorescence quenching using CNL001 (100 nM CNL001, second column): 82.14% | YFP fluorescence quenching using CNL002 (100 nM CNL002): 43.24% | YFP fluorescence quenching using ABT-126 (100 nM abt): −4.11% | YFP fluorescence quenching using AZD-0328 (100 nM azd0328): −16.69% | YFP fluorescence quenching using ABT-126 (300 nM abt): 18.93% | YFP fluorescence quenching using AZD-0328 (300 nM azd0328): 1.3% | YFP fluorescence quenching using TC-5619/Bradanicline (300 nM brd): 38.02% | YFP fluorescence quenching using Facinicline (300 nM fac): 20.11 | YFP fluorescence quenching using Varenicline (300 nM var, first column): −11.731 | YFP fluorescence quenching using Varenicline (300 nM var, second column): −10.13 | YFP fluorescence quenching using Varenicline (500 nM var, first column): −12.518 | YFP fluorescence quenching using Varenicline (500 nM var, second column): −15.043 | YFP fluorescence quenching using CNL001 (1 uM CNL001, first column): 82.34% | YFP fluorescence quenching using CNL001 (1 uM CNL001, second column): 80.649% | YFP fluorescence quenching using CNL002 (1 uM CNL002): 42.72% | YFP fluorescence quenching using ABT-126 (1 uM abt): 52.64% | YFP fluorescence quenching using TC-6987 (1 uM tc6987): 2.73 | YFP fluorescence quenching using Varenicline (1 uM var, first column): −13.385 | YFP fluorescence quenching using Varenicline (1 uM var, second column): −17.022 | YFP fluorescence quenching using TC-6987 (10 uM tc6987): 30.37 | YFP fluorescence quenching using CNL002 (30 uM CNL002): 51.43% | YFP fluorescence quenching using AZD-0328 (30 uM azd0328): 21.78% | YFP fluorescence quenching using Facinicline (30 uM fac): 37.62 | YFP fluorescence quenching using TC-6987 (500 uM tc6987): 33.07 | percent quench of YFP fluorescence, 30 nM TC-6683: −8.21% | percent quench of YFP fluorescence, 300 nM TC-6683: −16.37% | percent quench of YFP fluorescence, 3 uM TC-6683: −19.48% | percent quench of YFP fluorescence, 30 uM TC-6683: −24.32% | percent quench of YFP fluorescence, 100 uM TC-6683: −24.99% | percent quench of YFP fluorescence, 10 uM ach: −21.71% | percent quench of YFP fluorescence, 100 uM ach: 3.49% | percent quench of YFP fluorescence, 1 mM ach: 63.34% | percent quench of YFP fluorescence, 3 mM ach: 51.92%

B2: CODA1053: engineered chimeric LGIC receptor, R101M, L131A in SEQ ID NO: 33 (protein)
chain: B1 chain with R101M, L131A, C140Y
modifications: synthetic sequence of chimeric LGIC
YFP fluorescence quenching using CNL001 (1 nM CNL001, first column): −8.554% | YFP fluorescence quenching using CNL001 (1 nM CNL001, second column): −13.711% | YFP fluorescence quenching using TC-5619/Bradanicline (1 nM brd): 0.008% | YFP fluorescence quenching using TC-5619/Bradanicline (3 nM brd): 43.21% | YFP fluorescence quenching using Varenicline (3 nM var, first column): 74.835 | YFP fluorescence quenching using Varenicline (3 nM var, second column): 76.119 | YFP fluorescence quenching using CNL001 (10 nM CNL001, first column): 39.631% | YFP fluorescence quenching using CNL001 (10 nM CNL001, second column): 66.809% | YFP fluorescence quenching using TC-5619/Bradanicline (10 nM brd): 77.672% | YFP fluorescence quenching using TC-5619/Bradanicline (30 nM brd): 76.277% | YFP fluorescence quenching using Varenicline (30 nM var, first column): 77.608 | YFP fluorescence quenching using Varenicline (30 nM var, second column): 79.015 | YFP fluorescence quenching using CNL001 (50 nM CNL001, first column): 82.122% | YFP fluorescence quenching using CNL001 (50 nM CNL001, second column): 82.031% | YFP fluorescence quenching using ABT-126 (50 nM abt): −27.01% | YFP fluorescence quenching using CNL001 (100 nM CNL001, first column): 83.312% | YFP fluorescence quenching using CNL001 (100 nM CNL001, second column): 83.986% | YFP fluorescence quenching using ABT-126 (100 nM abt): −18.76% | YFP fluorescence quenching using TC-5619/Bradanicline (100 nM brd): 76.856% | YFP fluorescence quenching using ABT-126 (300 nM abt): −17.8% | YFP fluorescence quenching using TC-5619/Bradanicline (300 nM brd): 75.32% | YFP fluorescence quenching using Varenicline (300 nM var, first column): 80.71 | YFP fluorescence quenching using Varenicline (300 nM var, second column): 79.002 | YFP fluorescence quenching using Varenicline (500 nM var, first column): 78.709 | YFP fluorescence quenching using Varenicline (500 nM var, second column): 78.884 | YFP fluorescence quenching using CNL001 (1 uM CNL001, first column): 84.363% | YFP fluorescence quenching using CNL001 (1 uM CNL001, second column): 83.877% | YFP fluorescence quenching using ABT-126 (1 uM abt): −6.55% | YFP fluorescence quenching using Varenicline (1 uM var, first column): 79.688 | YFP fluorescence quenching using Varenicline (1 uM var, second column): 80 | percent quench of YFP fluorescence, 10 uM ach: −3.98% | percent quench of YFP fluorescence, 100 uM ach: −11% | percent quench of YFP fluorescence, 300 uM ach: −7.92% | percent quench of YFP fluorescence, 500 uM ach: 7.36% | percent quench of YFP fluorescence, 1 mM ach: 57.28% | percent quench of YFP fluorescence, 3 mM ach: 60.54% | percent quench of YFP fluorescence, 10 mM ach: 79.46%

B3: CODA1047: engineered chimeric LGIC receptor, R101F, Y210V in SEQ ID NO: 33 (protein)
chain: B1 chain with R101F, C140Y, Y210V
modifications: synthetic sequence of chimeric LGIC
YFP fluorescence quenching using CNL001 (1 nM CNL001, first column): −7.82% | YFP fluorescence quenching using CNL001 (1 nM CNL001, second column): −8.382% | YFP fluorescence quenching using TC-5619/Bradanicline (1 nM brd): −5.548% | YFP fluorescence quenching using TC-5619/Bradanicline (3 nM brd): −9.432% | YFP fluorescence quenching using Varenicline (3 nM var, first column): −3.035 | YFP fluorescence quenching using Varenicline (3 nM var, second column): −0.786 | YFP fluorescence quenching using CNL001 (10 nM CNL001, first column): −5.381% | YFP fluorescence quenching using CNL001 (10 nM CNL001, second column): −1.431% | YFP fluorescence quenching using TC-5619/Bradanicline (10 nM brd): −3.068% | YFP fluorescence quenching using TC-5619/Bradanicline (30 nM brd): 2.368% | YFP fluorescence quenching using Varenicline (30 nM var, first column): −5.181 | YFP fluorescence quenching using Varenicline (30 nM var, second column): 0.669 | YFP fluorescence quenching using CNL001 (50 nM CNL001, first column): −0.999% | YFP fluorescence quenching using CNL001 (50 nM CNL001, second column): 3.909% | YFP fluorescence quenching using ABT-126 (50 nM abt): −14.1% | YFP fluorescence quenching using CNL001 (100 nM CNL001, first column): −0.823% | YFP fluorescence quenching using CNL001 (100 nM CNL001, second column): −5.885% | YFP fluorescence quenching using ABT-126 (100 nM abt): −11.72% | YFP fluorescence quenching using TC-5619/Bradanicline (100 nM brd): 47.529% | YFP fluorescence quenching using ABT-126 (300 nM abt): −12.98% | YFP fluorescence quenching using TC-5619/Bradanicline (300 nM brd): 74.413% | YFP fluorescence quenching using Varenicline (300 nM var, first column): −2.748 | YFP fluorescence quenching using Varenicline (300 nM var, second column): −6.708 | YFP fluorescence quenching using Varenicline (500 nM var, first column): −9.123 | YFP fluorescence quenching using Varenicline (500 nM var, second column): −9.869 | YFP fluorescence quenching using CNL001 (1 uM CNL001, first column): 1.638% | YFP fluorescence quenching using CNL001 (1 uM CNL001, second column): 3.483% | YFP fluorescence quenching using ABT-126 (1 uM abt): −15.09% | YFP fluorescence quenching using Varenicline (1 uM var, first column): −6.702 | YFP fluorescence quenching using Varenicline (1 uM var, second column): −7.26 | percent quench of YFP fluorescence, 30 nM TC-6683: −24.195% | percent quench of YFP fluorescence, 300 nM TC-6683: −24.234% | percent quench of YFP fluorescence, 3 uM TC-6683: −21.291% | percent quench of YFP fluorescence, 30 uM TC-6683: −16.363% | percent quench of YFP fluorescence, 100 uM TC-6683: −24.9% | percent quench of YFP fluorescence, 10 uM ach: −4.26% | percent quench of YFP fluorescence, 100 uM ach: −13.05% | percent quench of YFP fluorescence, 300 uM ach: −11.73% | percent quench of YFP fluorescence, 500 uM ach: −10.75% | percent quench of YFP fluorescence, 1 mM ach: −8.81% | percent quench of YFP fluorescence, 3 mM ach: −6.77% | percent quench of YFP fluorescence, 10 mM ach: −1.03%
